What was measured:
[1] = target: T1, mouse ENTPD2 (Mus musculus, UniProt O55026); test: Mouse ENTPD2 NIH/3T3 cell-based functional assay
T1 construct: expressed in transfected cells
T1 sequence (O55026 1-495): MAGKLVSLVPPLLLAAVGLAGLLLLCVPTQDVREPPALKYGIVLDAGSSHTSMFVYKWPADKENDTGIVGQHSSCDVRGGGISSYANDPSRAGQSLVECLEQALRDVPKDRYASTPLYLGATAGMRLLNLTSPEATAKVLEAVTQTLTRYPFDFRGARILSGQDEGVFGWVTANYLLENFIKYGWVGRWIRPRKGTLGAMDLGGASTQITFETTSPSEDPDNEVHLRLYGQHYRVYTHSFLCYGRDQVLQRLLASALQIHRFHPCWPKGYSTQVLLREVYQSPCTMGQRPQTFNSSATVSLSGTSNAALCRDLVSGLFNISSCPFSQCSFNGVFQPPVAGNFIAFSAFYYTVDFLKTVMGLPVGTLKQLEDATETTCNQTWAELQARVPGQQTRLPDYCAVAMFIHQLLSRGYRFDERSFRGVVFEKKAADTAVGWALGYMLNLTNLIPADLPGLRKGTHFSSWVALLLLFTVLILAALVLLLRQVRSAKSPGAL
Text: Biochemical and cell-based functional assays were developed in-house to understand functional impact of anti-ENTPD2 Abs against purified extracellular domain of ENTPD2 (residues 29-462), as well as against the fully intact protein in the context of the native cell-based conformation. ENTPD2 hydrolyzes ATP to ADP, which can subsequently be detected using the HTRF Transcreener ADP2 TR-FRET Red Assay (BellBrook Labs, Madison, WI) where ENTPD2-produced ADP would compete with the ADP Tracer for binding to the anti-ADP-Tb antibody. The resulting signal is inversely proportional to the concentration of ADP in the sample.
To establish cell-based functional assays, human/cyno/mouse ENTPD2-engineered NIH/3T3 cells or RKO (ATCC, Manassa VA) colorectal cancer cells with endogenous ENTPD2 expression were plated overnight at 150, 200 and 250 cells per well for NIH/3T3 mouse, cyno and human ENTPD2 lines, respectively, or 1000 cells per well for RKO in 384-well tissue culture plate, in 30 μl per well (Perkin Elmer, Waltham, MA). […] ADP production was detected with the Transcreener ADP2 TR-FRET Red Assay (BellBrook Labs, Madison, WI) with a final concentration of 4 nM ADP2 antibody and 13.4 nM of ADP Tracer in wells (4× solution was prepared and 5 μL of “Detection Reagent Mix” was added to the quenched conditioned media). […]

[2] = system: B16LM3 tumor; test: Syngeneic B16LM3 tumor model, survival; assay type: in vivo, C57BL/6 mice; conditions: mAb13 15 mg/kg in combination with anti-PD-1 Ab 10 mg/kg i.p., days 1, 5, 8, 12, 15; relative to No Treatment, Isotype Control or anti-PD-1 Ab
Description: B16LM3 model was established in female C57BL/6 mice by subcutaneous injection of 0.5×10^6 cells into the right flank of each mouse. The day after implant mice were randomized into treatment groups (n=10 per group). Mice received treatments of either anti-mouse ENTPD2 mAb13 or a non-specific mIgG2a isotype control (clone MOPC-173, BioLegend, San Diego, CA) at a final dose 15 mg/kg on Day 1, 5, 8, 12, 15.
Anti-PD-1 Ab (clone RMP1-14 Bio X Cell, West Lebanon, NH) or non-specific rIgG2a isotype control (clone RTK2758, BioLegend, San Diego, CA) were delivered i.p. at a final dose of 10 mg/kg on days 1, 5, 8, 12, 15. All doses were adjusted to individual mouse body weights.

B1: mAb13: anti-mouse ENTPD2 monoclonal antibody, VH SEQ ID NO: 191, VL SEQ ID NO: 202 (antibody, V domains shown)
VH: QVQLVQSGAELKQPGQSVKISCKASGYTFTHYGMNWVKQAPGQGLKWMGWINTDTGNPTYADDFKGRFVFSLDTSVSTAYLQISNLKNEDTATYYCVRYGTLYSGYGFFFDSWGQGTLVTVSS
VL: DIMMTQSPSSLSVSAGEKATITCKSSQSLFNSNTNKNYLNWYLQKPGQSPKLLFYYASTRHTGVPDRFIGSGSGTDFTLTITSVQDEDLADYYCQQWYSYPWTFGPGTKLEIK
In the case of B1, the “% Inhibition at 100 nM (±Std Err)” value ([1]; 100 nM antibody, mouse ENTPD2 NIH/3T3 cells) is reported as 44 ± 7.3%, the “maximum target inhibition (mouse ENTPD2 inhibition)” value ([1]; NIH3T3-mouse ENTPD2 engineered cell line) is reported as 44% and the mouse survival [2] is reported as “significantly extended mouse survival”.
